Series [1] in a line: Ex vivo biodistribution in 4T1 tumor-bearing BALB/c mice, with blocking experiment. Particulars: female, mouse, total radioactivity, mean ± SD (n = 3); for tissue uptake at 0.5 h: 30 min p.i.; for tissue uptake at 1.5 h: 90 min p.i. As to the method: (§1) The 4T1 cell line was acquired from the Pasteur Institute of Iran (4T1 is a breast cancer cell line derived from the mammary gland tissue of a mouse BALB/c. (NCBICode: C604/the Pasteur Institute/Tehran/Iran). 4T1 cells are epithelial and can overexpress VEGFRs). The cells were cultured at 37 °C with 5% CO2 in Dulbecco’s modified Eagle’s medium (Gibco, Life Technologies, Carlsbad, CA, USA) supplemented with 10% fetal bovine serum (Gibco) and 1% antibiotics (penicillin and streptomycin). To develop tumor-bearing mice models, Balb/C mice (female, 6–8-week-old, 20–25 g) were purchased from the Institute of Biochemistry and Biophysics (IBB) (University of Tehran, Iran) and kept under the controlled conditions of temperature, humidity, and light/dark cycles with appropriate food and water (approved by the ethics committee of TUMS). Initially, the cells were harvested from the culture flask surface by 10 mM EDTA and centrifuged. After resuspending in serum-free culture medium, 1 × 10^6 cells/100 μL were injected subcutaneously into the right shoulder of mice. In the next 10 days, the tumor size was ready to use for imaging and biodistribution studies with a volume of […] [54].
(§2) The biodistribution of [^68Ga]Ga-DOTA-Ahx-peptide was evaluated in normal and tumor-bearing BALB/c mice. Therefore, 840 kBq in 100 μL saline was injected via the caudal vein of the mice. The animal was euthanized at different time points of 15, 30, 60, and 90 min post-injection using ketamine and xylazine in lethal doses. First, the blood sample was taken from the heart, and then organs (heart, kidney, liver, lungs, etc.) were removed. Tissues were rinsed and weighed, and the radioactivity of each organ was measured using a gamma counter. The organ uptake can be reported as the percentage of injected dose per gram of tissue (ID%/g). A 500-fold excess of DOTA-Ahx-ECRPPDDGLC was used 30 min before radiolabeled peptide injection for the blocking experiment.
Comparative biodistribution studies were conducted in healthy (Figure 7a) and subcutaneously (s.c) tumor-bearing mice (Figure 7b). […] At 30 min, the highest accumulation of the radioactive compound was measured in the kidneys, which was 9.2 ± 0.53%ID/g and increased over time up to 90 min. […] Kidneys in tumor-bearing mice were also the critical organ with the highest radioactivity concentration at different time points (5.62 ± 0.31%ID/g at 30 min and 6.35 ± 0.54%ID/g at 90 min). This increasing profile has confirmed the quick washing-out of important organs such as the heart, lungs, liver, stomach, and intestine, which had relatively high radioactivity uptake. […]
Figure 7 The biodistribution of the [^68Ga]Ga-DOTA-Ahx-peptide in (a) normal and (b) tumor-bearing BALB/c mice. The data are described as %ID/g, calculated at 30, 60, and 90 min after injection. […]

A short description of series [2]: Ex vivo biodistribution in normal BALB/c mice. The conditions noted are these: mouse, total radioactivity, mean ± SD (n = 3); for tissue uptake / tissue uptake at 0.5 h: iv, 840 kBq; for tissue uptake: healthy tissues, time point not stated; for tissue uptake at 0.5 h: normal mice. As for the experimental part:
as §2
Comparative biodistribution studies were conducted in healthy (Figure 7a) and subcutaneously (s.c) tumor-bearing mice (Figure 7b). […] Relatively high uptake was also observed in healthy tissues such as the spleen and intestine (3.7 ± 0.29%ID/g and 5.07 ± 0.21%ID/g, respectively). At 30 min, the highest accumulation of the radioactive compound was measured in the kidneys, which was 9.2 ± 0.53%ID/g and increased over time up to 90 min. Considering kidney uptake, this tracer is excreted mainly from this organ. The distribution profile of the [^68Ga]Ga-DOTA-Ahx-peptide in tumor-bearing mice had some similarity to the normal mice. Kidneys in tumor-bearing mice were also the critical organ with the highest radioactivity concentration at different time points (5.62 ± 0.31%ID/g at 30 min and 6.35 ± 0.54%ID/g at 90 min). This increasing profile has confirmed the quick washing-out of important organs such as the heart, lungs, liver, stomach, and intestine, which had relatively high radioactivity uptake. […] The maximum tumor uptake was 30 min after injection (1.51 ± 0.22%ID/g) and decreased by 90 min.
Figure 7 The biodistribution of the [^68Ga]Ga-DOTA-Ahx-peptide in (a) normal and (b) tumor-bearing BALB/c mice. The data are described as %ID/g, calculated at 30, 60, and 90 min after injection. The results are reported as mean ± SD (n = 3). (c) Tumor-to-organ ratio at 30, 60, and 90 min after IV injection. The uptake profile of (d) blood, (e) muscle, (f) liver, and (g) kidneys in comparison with the tumor from 15 to 90 min.

Series [3] is described as follows: n-octanol/water partition coefficient (log p). The class given is physicochemical. Particulars: shake-flask n-octanol/water; 100 μL radiopeptide in 0.99 mL water + 1 mL n-octanol; vortex 5 min, room temperature; centrifugation 10 min 5000 rpm; radioactivity read-out; mean ± SD (n = 3). As to the method: A total of 100 μL of the radiolabeled peptide was aliquoted into vials containing 0.99 mL of water and 1 mL of n-octanol, which was then mixed by a vortex mixer (Mabnagene, Tehran, Iran) at room temperature for 5 min. Aqueous and organic layers were separated by centrifugation (10 min, 5000 rpm). Then, 500 μL aliquots of each layer were transferred to the new vials, and the radioactivity of both was measured in a dose calibrator (Capintec CRC®-25, Florham Park, NJ, USA).
The lipid–water partition coefficient for the [^68Ga]Ga-DOTA-Ahx-peptide was estimated in the n-octanol water system, using a […]. Approximately, the log p value was −2.17 ± 0.072, considering the below formula (Equation (2)). The result is reported as mean ± SD (n = 3). […] (2) […]

In series [4] the test system is 4T1 cells. In kind it is binding, mouse BALB/c. As to the method: as §1
A competitive binding assay was conducted to determine the value of 50% inhibitory concentration (IC50) for the [^68Ga]Ga-DOTA-Ahx-peptide, using the non-radiolabeled peptide as a competitor. […]

Setting [5] is: blood, IV 840 kBq, read-out: blood uptake.
Where [6] appears, read: kidney, iv, 840 kBq, read-out: kidney uptake.

Read-outs that look alike come from different tables or passages of the source. Where a SMILES comes first, the peptide text is derived from it. Bridges are numbered along the chain shown (N, C = ends). The star is where a group is joined. DOTA = O=C(O)CN1CCN(CC(=O)O)CCN(CC(=O)*)CCN(CC(=O)O)CC1; Ahx = NCCCCCC(=O)O

These results are taken from article PMC11279866, “Synthesis, Radiolabeling, and Biodistribution Study of a Novel DOTA-Peptide for Targeting Vascular Endothelial Growth Factor Receptors in the Molecular Imaging of Breast Cancer” (Pharmaceutics, 2024).

As for `CC(C)C[C@@H]1NC(=O)CNC(=O)[C@H](CC(=O)O)NC(=O)[C@H](CC(=O)O)NC(=O)[C@@H]2CCCN2C(=O)[C@@H]2CCCN2C(=O)[C@H](CCCNC(=N)N)NC(=O)[C@@H](NC(=O)[C@H](CCC(=O)O)NC(=O)CCCCCNC(=O)CN2CCN(CC(=O)O)CCN(CC(=O)O)CCN(CC(=O)O)CC2)CSSC[C@@H](C(=O)O)NC1=O` [[^68Ga]Ga-DOTA-Ahx-VGB3, metal not drawn] ({DOTA-Ahx}-ECRPPDDGLC-OH; disulfide 2-10), the tissue uptake at 0.5 h in series [1] (setting [5]) was found to be 1.4 ± 0.18 %ID/g; in series [1] (setting [6]) it was 5.62 ± 0.31 %ID/g; in series [2] (kidney, 30 min p.i., read-out: kidney uptake), 9.2 ± 0.53 %ID/g; in series [2] (liver, 30 p.i., read-out: liver uptake (maximum)), 4.41 ± 0.56 %ID/g. The tissue uptake at 1.5 h is 0.22 ± 0.06 %ID/g in series [1] (setting [5]); 6.35 ± 0.54 %ID/g in series [1] (setting [6]); 0.32 ± 0.036 %ID/g in series [2] (blood, healthy mice, 90 min p.i., IV 840 kBq). Moreover, the tissue uptake in series [2] (intestine, read-out: intestine uptake) amounted to 5.07 ± 0.21 %ID/g; in series [2] (spleen, read-out: spleen uptake) it was 3.7 ± 0.29 %ID/g. In addition, the “log p (n-octanol/water partition coefficient)” value in series [3] is on record as about −2.17 ± 0.072. The IC50 in series [4] is about 867 nM.
